Source: patent publication US20190169638

Legend:
[1] = tested on: Sleeping Beauty transposase N123 (PAIRED DNA-binding domain, PAI+RED) (synthetic (Sleeping Beauty, reconstructed salmonid Tc1/mariner)?); assay: EMSA; details: reference for CAST sequences
[2] = tested on: Sleeping Beauty transposase SB10 (synthetic (Sleeping Beauty, reconstructed salmonid Tc1/mariner)?); assay: cell_activity; details: transposition in HeLa

Sequence | binding signal [1] | activity (% of wild-type transposon) [2]
ACATACACTTAAGTGTATGTAAACTTCCGACTTCAACTTGG / GACTCCAAGTTGAAGTCGGAAGTTTACATACACTTAAGTGTATGT [14DR (outer DR) probe] | 1 fold | 
GTACATACACGCGCACTTCTGACCCACTGG (double strand) [pT/neo transposon with CAST-5/wt hybrid inner DRs] |  | 130
GTGACGACCCCAAGTGTACATACACGCGCC (double strand) [pT/neo transposon with 12DRs replaced by CAST-5] |  | 65
GTGACGACCCCAAGTGTACATACACGCGCC (double strand) [pT/neo transposon with 14DRs replaced by CAST-5] |  | 3
GTGACGACCCCAAGTGTACATACACGCGCC (double strand) [pT/neo transposon with all four DRs CAST-5] |  | 2.2
